Source: paper PMC9453709

Target: SARS-CoV-2 Omicron BA.1 S glycoprotein ectodomain with S6P and GSAS mutations (SARS-CoV-2)
Assay: cryo-EM structure

SARS-CoV-2 Omicron BA.1 S glycoprotein ectodomain with S6P and GSAS mutations (domain or fragment)
stoichiometry N: 3
